{"source": "patent CN115558029A", "key": {"[1]": {"target": "人PD-1蛋白(北京百普赛斯，货号PD1-H5221) (human) (UniProt Q15116)", "assay": "binding ELISA on coated PD-1 protein"}, "[2]": {"target": "人PD-1蛋白(北京百普赛斯，货号PD1-H5221) (human) (UniProt Q15116)", "assay": "binding ELISA on coated PD-1 protein", "remark": "listed apart in the source"}, "[3]": {"target": "人PD-1蛋白(北京百普赛斯，货号PD1-H5221) (human) (UniProt Q15116)", "assay": "binding ELISA, human PD-1 protein coated at 1 μg/mL, anti-human IgG (Fc)-HRP"}, "[4]": {"target": "PD-1 on Jurkat/PD-1细胞(Promega) (UniProt Q15116)", "assay": "cell-based or functional assay"}, "[5]": {"target": "PD-1 on Jurkat/PD-1细胞(Promega) (UniProt Q15116)", "assay": "cell-based or functional assay", "remark": "listed apart in the source"}, "[6]": {"target": "PD-1 on Jurkat/PD-1细胞(Promega) (UniProt Q15116)", "assay": "cell-based or functional assay", "remark": "listed apart in the source"}, "[7]": {"target": "人PD-1蛋白(北京百普赛斯，货号PD1-H5221) (human) (UniProt Q15116)", "assay": "binding ELISA on coated PD-1 protein", "remark": "listed apart in the source"}, "[8]": {"target": "人PD-1蛋白(北京百普赛斯，货号PD1-H5221) (human) (UniProt Q15116)", "assay": "binding ELISA on coated PD-1 protein", "remark": "listed apart in the source"}}, "note": "Like-named read-outs stand apart in the source and are kept apart here.", "data": [{"binder": "PD-1VHH抗体克隆huVHH3-3 (VHH, part only; not given: format as tested, part only) VHH, part: EVQLVESGGGLVQPGGSLRLSCAASGRTSSMYAMGWFRQAPGNEREFVAGIGWENNTPYYARSVEGRFTISRDNVKNTVFLQMNRLRAEDTAVYYCAAQIGISGTLGDYWGQGTQVTVSS", "values": [{"measurement": "EC50", "setting": "[1]", "value": 0.0122, "unit": "µg/mL"}, {"measurement": "EC50", "setting": "[2]", "value": 0.0053, "unit": "µg/mL"}, {"measurement": "EC50", "setting": "[3]", "value": 0.0202, "unit": "µg/mL"}, {"measurement": "EC50, PD-1报告基因法", "setting": "[4]", "value": 0.2, "unit": "µg/mL"}, {"measurement": "EC50, 报告基因法 (CHO/PD-L1 + Jurkat/PD-1, One-Glo luminescence)", "setting": "[4]", "value": "0.2 to 0.5", "unit": "µg/mL"}, {"measurement": "EC50, PD-1报告基因法", "setting": "[5]", "value": 0.4, "unit": "µg/mL"}, {"measurement": "EC50, PD-1报告基因法", "setting": "[6]", "value": 0.5, "unit": "µg/mL"}, {"measurement": "EC50", "setting": "[7]", "value": 0.0164, "unit": "µg/mL"}, {"measurement": "EC50", "setting": "[8]", "value": 0.0073, "unit": "µg/mL"}]}]}
